# Source: patent US20250002588A1 (DIAGONAL THERAPEUTICS, published 2025)
# Substitutions are numbered along the chain they refer to.
# B1: DGL278 (bispecific antibody, human IgG1, lambda)
# heavy: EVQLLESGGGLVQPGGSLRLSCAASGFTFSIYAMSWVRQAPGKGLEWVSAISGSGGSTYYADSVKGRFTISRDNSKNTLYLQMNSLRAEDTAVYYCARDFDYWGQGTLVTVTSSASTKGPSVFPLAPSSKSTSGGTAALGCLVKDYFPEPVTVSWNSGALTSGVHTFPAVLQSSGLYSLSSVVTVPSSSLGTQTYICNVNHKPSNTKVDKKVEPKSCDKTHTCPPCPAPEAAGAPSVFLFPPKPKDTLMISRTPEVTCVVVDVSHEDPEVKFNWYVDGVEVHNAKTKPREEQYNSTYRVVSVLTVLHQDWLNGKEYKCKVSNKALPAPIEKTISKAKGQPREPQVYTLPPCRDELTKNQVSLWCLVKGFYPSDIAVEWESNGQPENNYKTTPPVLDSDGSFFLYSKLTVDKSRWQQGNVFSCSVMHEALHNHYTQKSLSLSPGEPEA
# light: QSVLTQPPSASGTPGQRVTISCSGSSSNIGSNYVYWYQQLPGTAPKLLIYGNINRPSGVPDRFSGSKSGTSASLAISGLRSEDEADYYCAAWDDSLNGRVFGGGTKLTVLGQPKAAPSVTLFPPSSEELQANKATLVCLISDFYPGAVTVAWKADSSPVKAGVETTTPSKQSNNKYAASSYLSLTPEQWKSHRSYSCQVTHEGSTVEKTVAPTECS
# chain: EVQLLESGGGLVQPGGSLRLSCAASGFTFSIYAMSWVRQAPGKGLEWVSAISGSGGSTYYADSVKGRFTISRDNSKNTLYLQMNSLRAEDTAVYYCARDFDYWGQGTLVTVTSSGGGGSGGGGSGGGGSQSVLTQPPSASGTPGQRVTISCSGSSSNIGSNYVYWYQQLPGTAPKLLIYGNINRPSGVPDRFSGSKSGTSASLAISGLRSEDEADYYCAAWDDSLNGRVFGGGTKLTVLDKTHTCPPCPAPEAAGAPSVFLFPPKPKDTLMISRTPEVTCVVVDVSHEDPEVKFNWYVDGVEVHNAKTKPREEQYNSTYRVVSVLTVLHQDWLNGKEYKCKVSNKALPAPIEKTISKAKGQPREPQVCTLPPSRDELTKNQVSLSCAVKGFYPSDIAVEWESNGQPENNYKTTPPVLDSDGSFFLVSKLTVDKSRWQQGNVFSCSVMHEALHNHYTQKSLSLSPGKWSHPQFEK
# B2: DGL285 (bispecific antibody)
# chain: EVQLLESGGGLVQPGGSLRLSCAASGFTFSIYAMSWVRQAPGKGLEWVSAISGSGGSTYYADSVKGRFTISRDNSKNTLYLQMNSLRAEDTAVYYCARDFDYWGQGTLVTVTSSGGGGSGGGGSGGGGSQSVLTQPPSASGTPGQRVTISCSGSSSNIGSNYVYWYQQLPGTAPKLLIYGNINRPSGVPDRFSGSKSGTSASLAISGLRSEDEADYYCAAWDDSLNGRVFGGGTKLTVLDKGPSVFPLAPEPKSSEVQLLESGGGLVQPGGSLRLSCAASGFTFSNAWMNWVRQAPGKGLEWVSSISSSSSYIYYADSVKGRFTISRDNSKNTLYLQMNSLRAEDTAVYYCARAVAAGGMFWGLDQWGQGTLVTVTSSGGGGSGGGGSGGGGSQSVLTQPPSASGTPGQRVTISCSGSRSNIGSNSVHWYQQLPGTAPKLLIYGNSNRPSGVPDRFSGSKSGTSASLAISGLRSEDEADYYCQSYDSSLNDHVVFGGGTKLTVLDKTHTCPPCPAPEAAGAPSVFLFPPKPKDTLMISRTPEVTCVVVDVSHEDPEVKFNWYVDGVEVHNAKTKPREEQYNSTYRVVSVLTVLHQDWLNGKEYKCKVSNKALPAPIEKTISKAKGQPREPQVYTLPPSRDELTKNQVSLTCLVKGFYPSDIAVEWESNGQPENNYKTTPPVLDSDGSFFLYSKLTVDKSRWQQGNVFSCSVMHEALHNHYTQKSLSLSPG
# B3: DGL281 (bispecific antibody, human IgG1, lambda)
# heavy: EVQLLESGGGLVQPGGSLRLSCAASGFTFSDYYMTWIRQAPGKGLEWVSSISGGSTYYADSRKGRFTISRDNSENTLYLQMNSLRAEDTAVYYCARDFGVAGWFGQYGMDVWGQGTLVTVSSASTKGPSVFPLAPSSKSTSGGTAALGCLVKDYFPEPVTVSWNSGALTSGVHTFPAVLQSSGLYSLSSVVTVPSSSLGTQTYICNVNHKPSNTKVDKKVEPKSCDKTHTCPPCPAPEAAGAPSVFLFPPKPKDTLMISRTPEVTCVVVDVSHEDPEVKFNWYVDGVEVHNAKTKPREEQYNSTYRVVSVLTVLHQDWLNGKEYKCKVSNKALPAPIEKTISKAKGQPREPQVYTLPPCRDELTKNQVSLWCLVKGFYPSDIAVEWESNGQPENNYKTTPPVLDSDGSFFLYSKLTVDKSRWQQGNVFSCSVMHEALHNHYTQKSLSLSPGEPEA
# light: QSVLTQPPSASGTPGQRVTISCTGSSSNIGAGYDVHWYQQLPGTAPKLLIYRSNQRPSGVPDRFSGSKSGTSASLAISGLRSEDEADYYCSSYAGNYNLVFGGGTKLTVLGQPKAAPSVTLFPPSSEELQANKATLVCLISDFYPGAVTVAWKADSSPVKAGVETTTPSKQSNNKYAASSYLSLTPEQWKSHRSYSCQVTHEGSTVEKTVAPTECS
# chain: EVQLLESGGGLVQPGGSLRLSCAASGFTFSDYYMTWIRQAPGKGLEWVSSISGGSTYYADSRKGRFTISRDNSENTLYLQMNSLRAEDTAVYYCARDFGVAGWFGQYGMDVWGQGTLVTVSSGGGGSGGGGSGGGGSQSVLTQPPSASGTPGQRVTISCTGSSSNIGAGYDVHWYQQLPGTAPKLLIYRSNQRPSGVPDRFSGSKSGTSASLAISGLRSEDEADYYCSSYAGNYNLVFGGGTKLTVLDKTHTCPPCPAPEAAGAPSVFLFPPKPKDTLMISRTPEVTCVVVDVSHEDPEVKFNWYVDGVEVHNAKTKPREEQYNSTYRVVSVLTVLHQDWLNGKEYKCKVSNKALPAPIEKTISKAKGQPREPQVCTLPPSRDELTKNQVSLSCAVKGFYPSDIAVEWESNGQPENNYKTTPPVLDSDGSFFLVSKLTVDKSRWQQGNVFSCSVMHEALHNHYTQKSLSLSPGKWSHPQFEK
# B4: DGL282 (bispecific antibody, human IgG1, lambda)
# heavy 1: EVQLLESGGGLVQPGGSLRLSCAASGFTFSIYAMSWVRQAPGKGLEWVSAISGSGGSTYYADSVKGRFTISRDNSKNTLYLQMNSLRAEDTAVYYCARDFDYWGQGTLVTVTSSASVAAPSVFIFPPSDEQLKSGTASVVCLLNNFYPREAKVQWKVDNALQSGNSQESVTEQDSKDSTYSLSSTLTLSKADYEKHKVYACEVTHQGLSSPVTKSFNRGECDKTHTCPPCPAPEAAGAPSVFLFPPKPKDTLMISRTPEVTCVVVDVSHEDPEVKFNWYVDGVEVHNAKTKPREEQYNSTYRVVSVLTVLHQDWLNGKEYKCKVSNKALPAPIEKTISKAKGQPREPQVCTLPPSRDELTKNQVSLSCAVKGFYPSDIAVEWESNGQPENNYKTTPPVLDSDGSFFLVSKLTVDKSRWQQGNVFSCSVMHEALHNHYTQKSLSLSPGWSHPQFEK
# light 1: QSVLTQPPSASGTPGQRVTISCSGSSSNIGSNYVYWYQQLPGTAPKLLIYGNINRPSGVPDRFSGSKSGTSASLAISGLRSEDEADYYCAAWDDSLNGRVFGGGTKLTVLSSASTKGPSVFPLAPSSKSTSGGTAALGCLVKDYFPEPVTVSWNSGALTSGVHTFPAVLQSSGLYSLSSVVTVPSSSLGTQTYICNVNHKPSNTKVDKKVEPKSC
# heavy 2: not shown
# light 2: not shown
# B5: DGL283 (bispecific antibody, human IgG1, lambda)
# heavy 1: EVQLLESGGGLVQPGGSLRLSCAASGFTFSSYAMSWVRQAPGKGLEWVANINQDGSEKNYVDSMRGRFTISRDNSKNTLYLQMNSLRAEDTAVYYCAREFDYWGQGTLVTVTSSASVAAPSVFIFPPSDEQLKSGTASVVCLLNNFYPREAKVQWKVDNALQSGNSQESVTEQDSKDSTYSLSSTLTLSKADYEKHKVYACEVTHQGLSSPVTKSFNRGECDKTHTCPPCPAPEAAGAPSVFLFPPKPKDTLMISRTPEVTCVVVDVSHEDPEVKFNWYVDGVEVHNAKTKPREEQYNSTYRVVSVLTVLHQDWLNGKEYKCKVSNKALPAPIEKTISKAKGQPREPQVCTLPPSRDELTKNQVSLSCAVKGFYPSDIAVEWESNGQPENNYKTTPPVLDSDGSFFLVSKLTVDKSRWQQGNVFSCSVMHEALHNHYTQKSLSLSPGWSHPQFEK
# light 1: B4 light 1 with T5A, I53N, N54K
# heavy 2: not shown
# light 2: not shown
# B6: DGL276 (bispecific antibody)
# chain 1: EVQLLESGGGLVQPGGSLRLSCAASGFTFSSYAMSWVRQAPGKGLEWVANINQDGSEKNYVDSMRGRFTISRDNSKNTLYLQMNSLRAEDTAVYYCAREFDYWGQGTLVTVTSSGGGGSGGGGSGGGGSQSVLAQPPSASGTPGQRVTISCSGSSSNIGSNYVYWYQQLPGTAPKLLIYGNNKRPSGVPDRFSGSKSGTSASLAISGLRSEDEADYYCAAWDDSLNGRVFGGGTKLTVLCPPCPAPEAAGAPSVFLFPPKPKDTLMISRTPEVTCVVVDVSHEDPEVKFNWYVDGVEVHNAKTKPREEQYNSTYRVVSVLTVLHQDWLNGKEYKCKVSNKALPAPIEKTISKAKGQPREPQVYTLPPCRDELTKNQVSLWCLVKGFYPSDIAVEWESNGQPENNYKTTPPVLDSDGSFFLYSKLTVDKSRWQQGNVFSCSVMHEALHNHYTQKSLSLSPGEPEA
# chain 2: EVQLLESGGGLVQPGGSLRLSCAASGFTFSDYYMTWIRQAPGKGLEWVSSISGGSTYYADSRKGRFTISRDNSENTLYLQMNSLRAEDTAVYYCARDFGVAGWFGQYGMDVWGQGTLVTVSSGGGGSGGGGSGGGGSQSVLTQPPSASGTPGQRVTISCTGSSSNIGAGYDVHWYQQLPGTAPKLLIYRSNQRPSGVPDRFSGSKSGTSASLAISGLRSEDEADYYCSSYAGNYNLVFGGGTKLTVLCPPCPAPEAAGAPSVFLFPPKPKDTLMISRTPEVTCVVVDVSHEDPEVKFNWYVDGVEVHNAKTKPREEQYNSTYRVVSVLTVLHQDWLNGKEYKCKVSNKALPAPIEKTISKAKGQPREPQVCTLPPSRDELTKNQVSLSCAVKGFYPSDIAVEWESNGQPENNYKTTPPVLDSDGSFFLVSKLTVDKSRWQQGNVFSCSVMHEALHNHYTQKSLSLSPGWSHPQFEK
# B7: DGL286 (bispecific antibody)
# chain: EVQLLESGGGLVQPGGSLRLSCAASGFTFSNAWMNWVRQAPGKGLEWVSSISSSSSYIYYADSVKGRFTISRDNSKNTLYLQMNSLRAEDTAVYYCARAVAAGGMFWGLDQWGQGTLVTVTSSGGGGSGGGGSGGGGSQSVLTQPPSASGTPGQRVTISCSGSRSNIGSNSVHWYQQLPGTAPKLLIYGNSNRPSGVPDRFSGSKSGTSASLAISGLRSEDEADYYCQSYDSSLNDHVVFGGGTKLTVLDKGPSVFPLAPEPKSSEVQLLESGGGLVQPGGSLRLSCAASGFTFSIYAMSWVRQAPGKGLEWVSAISGSGGSTYYADSVKGRFTISRDNSKNTLYLQMNSLRAEDTAVYYCARDFDYWGQGTLVTVTSSGGGGSGGGGSGGGGSQSVLTQPPSASGTPGQRVTISCSGSSSNIGSNYVYWYQQLPGTAPKLLIYGNINRPSGVPDRFSGSKSGTSASLAISGLRSEDEADYYCAAWDDSLNGRVFGGGTKLTVLDKTHTCPPCPAPEAAGAPSVFLFPPKPKDTLMISRTPEVTCVVVDVSHEDPEVKFNWYVDGVEVHNAKTKPREEQYNSTYRVVSVLTVLHQDWLNGKEYKCKVSNKALPAPIEKTISKAKGQPREPQVYTLPPSRDELTKNQVSLTCLVKGFYPSDIAVEWESNGQPENNYKTTPPVLDSDGSFFLYSKLTVDKSRWQQGNVFSCSVMHEALHNHYTQKSLSLSPG
# B8: DGL277 (bispecific antibody)
# chain 1: EVQLLESGGGLVQPGGSLRLSCAASGFTFSSYAMSWVRQAPGKGLEWVANINQDGSEKNYVDSMRGRFTISRDNSKNTLYLQMNSLRAEDTAVYYCAREFDYWGQGTLVTVTSSGGGGSGGGGSGGGGSQSVLAQPPSASGTPGQRVTISCSGSSSNIGSNYVYWYQQLPGTAPKLLIYGNNKRPSGVPDRFSGSKSGTSASLAISGLRSEDEADYYCAAWDDSLNGRVFGGGTKLTVLPLAPCPPCPAPEAAGAPSVFLFPPKPKDTLMISRTPEVTCVVVDVSHEDPEVKFNWYVDGVEVHNAKTKPREEQYNSTYRVVSVLTVLHQDWLNGKEYKCKVSNKALPAPIEKTISKAKGQPREPQVYTLPPCRDELTKNQVSLWCLVKGFYPSDIAVEWESNGQPENNYKTTPPVLDSDGSFFLYSKLTVDKSRWQQGNVFSCSVMHEALHNHYTQKSLSLSPGEPEA
# chain 2: EVQLLESGGGLVQPGGSLRLSCAASGFTFSDYYMTWIRQAPGKGLEWVSSISGGSTYYADSRKGRFTISRDNSENTLYLQMNSLRAEDTAVYYCARDFGVAGWFGQYGMDVWGQGTLVTVSSGGGGSGGGGSGGGGSQSVLTQPPSASGTPGQRVTISCTGSSSNIGAGYDVHWYQQLPGTAPKLLIYRSNQRPSGVPDRFSGSKSGTSASLAISGLRSEDEADYYCSSYAGNYNLVFGGGTKLTVLPLAPCPPCPAPEAAGAPSVFLFPPKPKDTLMISRTPEVTCVVVDVSHEDPEVKFNWYVDGVEVHNAKTKPREEQYNSTYRVVSVLTVLHQDWLNGKEYKCKVSNKALPAPIEKTISKAKGQPREPQVCTLPPSRDELTKNQVSLSCAVKGFYPSDIAVEWESNGQPENNYKTTPPVLDSDGSFFLVSKLTVDKSRWQQGNVFSCSVMHEALHNHYTQKSLSLSPGWSHPQFEK
# Target: ALK-1/BMPR-2 receptor pair of the PathHunter U2Os dimerization cells (DiscoverX 93-0962C3) (UniProt P37023 22-503; Q13873 27-1038)
# Sequence (P37023 22-503, chain 1 of 2): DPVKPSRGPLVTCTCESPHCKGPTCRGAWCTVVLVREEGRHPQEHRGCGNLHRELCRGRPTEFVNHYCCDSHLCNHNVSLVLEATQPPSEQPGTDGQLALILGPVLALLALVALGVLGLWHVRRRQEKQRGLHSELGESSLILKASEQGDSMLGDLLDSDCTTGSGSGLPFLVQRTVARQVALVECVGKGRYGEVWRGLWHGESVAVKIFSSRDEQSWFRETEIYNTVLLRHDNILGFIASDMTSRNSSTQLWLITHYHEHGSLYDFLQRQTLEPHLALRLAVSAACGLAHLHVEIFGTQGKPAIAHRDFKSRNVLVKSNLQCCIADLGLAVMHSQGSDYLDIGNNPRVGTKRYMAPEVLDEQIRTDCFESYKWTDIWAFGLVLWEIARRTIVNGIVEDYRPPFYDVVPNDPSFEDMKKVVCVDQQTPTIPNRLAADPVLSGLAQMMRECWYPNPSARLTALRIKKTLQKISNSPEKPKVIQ
# Sequence (Q13873 27-1038, chain 2 of 2): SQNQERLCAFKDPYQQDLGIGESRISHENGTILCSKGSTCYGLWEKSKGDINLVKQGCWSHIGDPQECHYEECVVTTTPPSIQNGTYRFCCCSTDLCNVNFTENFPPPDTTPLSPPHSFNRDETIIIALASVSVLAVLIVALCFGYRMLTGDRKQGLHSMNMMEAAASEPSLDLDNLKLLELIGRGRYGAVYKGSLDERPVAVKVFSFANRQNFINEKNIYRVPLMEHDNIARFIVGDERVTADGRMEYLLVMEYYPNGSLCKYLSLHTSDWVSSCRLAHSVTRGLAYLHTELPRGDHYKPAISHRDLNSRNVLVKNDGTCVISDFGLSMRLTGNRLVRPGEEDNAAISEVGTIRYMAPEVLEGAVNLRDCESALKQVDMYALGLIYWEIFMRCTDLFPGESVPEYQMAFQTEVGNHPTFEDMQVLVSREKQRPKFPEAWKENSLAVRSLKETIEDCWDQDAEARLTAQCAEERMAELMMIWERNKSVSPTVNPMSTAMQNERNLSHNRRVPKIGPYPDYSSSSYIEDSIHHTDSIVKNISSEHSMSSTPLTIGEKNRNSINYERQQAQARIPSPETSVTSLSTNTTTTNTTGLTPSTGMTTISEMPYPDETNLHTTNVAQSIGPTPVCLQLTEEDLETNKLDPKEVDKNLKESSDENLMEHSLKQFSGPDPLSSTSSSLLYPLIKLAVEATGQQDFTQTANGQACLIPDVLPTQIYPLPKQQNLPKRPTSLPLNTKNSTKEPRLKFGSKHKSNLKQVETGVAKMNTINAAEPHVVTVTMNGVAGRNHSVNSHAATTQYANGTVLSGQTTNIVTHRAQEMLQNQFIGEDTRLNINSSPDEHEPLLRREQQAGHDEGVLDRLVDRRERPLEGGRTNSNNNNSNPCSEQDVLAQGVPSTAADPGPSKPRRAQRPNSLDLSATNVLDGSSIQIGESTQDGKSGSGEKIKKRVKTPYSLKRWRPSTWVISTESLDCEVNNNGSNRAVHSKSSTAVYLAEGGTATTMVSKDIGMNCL
# Assay: cell-based or functional assay
% Emax BMP9,EC50,Emax (RLU),Binder
26%,14 nM,684000 RLU,B1
56%,0.08 nM,1.47e+06 RLU,B2
42%,330 nM,1.11e+06 RLU,B3
36%,170 nM,954000 RLU,B4
33%,28 nM,879000 RLU,B5
43%,1.2 nM,1.14e+06 RLU,B6
68%,0.2 nM,1.8e+06 RLU,B7
51%,1 nM,1.35e+06 RLU,B8
